Assay: yeast display, Sf9 membrane polyspecificity reagent, FACS + sequencing; frameworks hold sequencing errors
Procedure, shortened: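 Nanobodies came from a synthetic yeast display library in Saccharomyces cerevisiae BJ5465, induced with galactose for 36–48 hours and stained for 1 hour at 4 °C with 10% biotinylated, detergent-solubilized Sf9 membrane reagent. Cells were enriched on streptavidin microbeads and then FACS-sorted, with low and high (top ~1%) gates set on anti-HA fluorescence for expression and streptavidin fluorescence for reagent binding. Each polyreactivity label reflects the gate a clone came from. Genes were amplified by colony PCR, sequenced by MiSeq 2 × 250 and filtered by CDR length.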

Row | Sequence | polyreactivity (PSR sort gate)
1 | QVQLVESGGGLVQAGGSLRLSCAASGIIFYYYGMGWSRQAPGKEREFVAAISTSGGNTYYADSVKGRFTISRDNAKNTVYLQMNSLKPEDTAVYYCAADDWPWGDAGVDYWGQGTQVTVSS | low polyreactivity
2 | QVQLVESGGGLVQAGGSLRLSCAASGIIIGGNAMGWYRQARGKERELVAAINSDDSTYYADSVKGRFTISRDNAKNTVYLQMNSLKPEDTAVYYCAVTETYYSPYSGYWYEYDHWGQGTQVTVSS | high polyreactivity
3 | QVQLVESGGGLVQAGGSLRLSCAASGIIILWNAMGWDRQAPGKERELVATISWTDGSTSYADSVKGRFTISRDNAKNTVYLQMNSLKPEDTAVYYCNVRHKSYRKSDYWGQGTQVTVSS | low polyreactivity
4 | QVQLVESGGGLVQAGGSLRLSCAASGIIIPYYAMGWYRQAPGKERELVAAISSGGSTNYADSVKGRFTISRDNAKNTVYLQMNSLKPEDTAVYYCAAKYTSYASWPIWVVDQFDYWGQGTQVTVSS | low polyreactivity
5 | QVQLVESGGGLVQAGGSLRLSCAASGIIIRGYAMGLYRQAPGKERELVAGITSGGRTYYADSVKGRFTISRDNAKNTVYLQMNSLKPEDTAVYYCNADAYGDDWKIYDYWGQVTQVTVSS | low polyreactivity
6 | QVQLVESGGGLVQAGGSLRLSCAASGIIIVRYAMGWYRQAPGKERELVAAISWSGGRTYYADSVKGRFTISRDNAKNTVYFQINSLKPEDTAVYYCAAAPLYYHRRGYYYWGQGTQVTVSS | high polyreactivity
7 | QVQLVESGGGLVQAGGSLRLSCAASGIILAYYAMRWYRQAPGKERELVASINRSGGSTYYADSVKGRFTISRDNAKNTVYFQMNSMKPEDTAVYYCDATTRGVGQWWYRYYYWGQGTQVTVSS | high polyreactivity
8 | QVQLVESGGGLVQAGGSLRLSCAASGIILDPNAMGGYRQAPGKERELVAGITRSGVSTYYADSVKGRFTISRDNAKNTVYLQMKSLKPEDTAVYYCAKDRIYGSKGEDDDYWGQGTQVTVSS | low polyreactivity
9 | QVQLVESGGGLVQAGGSLRLSCAASGIILGSYVMGWYRQAPGKERELVAVISFSGGSTYSADSVKGRFTISRDNAKNTVYLQMNSLKPEDTAVYYCAADNFRSYTIRSPYNYWGQGTQVTVSS | low polyreactivity
10 | QVQLVESGGGLVQAGGSLRLSCAASGIILGYYAMGWYRQAPGKERELVAAINWSGASTYYADSVKGRFTISRDNAKNTVYLQMNSLKPEDTAVYYCARRAYGTRVLFDYWGQGTQVTVSS | high polyreactivity
11 | QVQLVESGGGLVQAGGSLRLSCAASGIILHYYAMGSYRQAPGKERELVAAISARGGRTYYADSVKGRFTISRDNAKNTVYLQMNSLKPEDTAVYYCARYLRRSSPSPGYGYWGQGTQVTVSS | high polyreactivity
12 | QVQLVESGGGLVQAGGSLRLSCAASGIILHYYTMGWYRQAPGKERELVAAITFSGGGTYYADSVKGRFTISRDNAKNTVYLQMNSLKPEDTAVYYCAAPWRYYGHDYWGQGTQVTVSS | low polyreactivity
13 | QVQLVESGGGLVQAGGSLRLSCAASGIILPYYVMGSYRPAPGKERELVAAISSGGRTYYADSVKGRFTISRDNAKNTVYLQMNSLKPEDTAVYYCNAYFTGKWYDYWVQGTQVTVSS | high polyreactivity
14 | QVQLVESGGGLVQAGGSLRLSCAASGIILRRYAMGWYRQAPGKERELVARISYRGGRTNYADSVKGRFTISRDNAKNTFYLEMNSLKPEDTAVYYCDAVDWYYHEGTAYNYWGQGTQVTVSS | high polyreactivity
15 | QVQLVESGGGLVQAGGSLRLSCAASGIILSENDMGWYRQAPGKERELVAAITSSGSTSYADSVKGRFTISRDNAKNTVYLQMNSLKPEDTAVYYCAADYLNPFPPYQYWKQSYDYWGQGTQVTVSS | low polyreactivity
16 | QVQLVESGGGLVQAGGSLRLSCAASGIILYTYAMGWYRQAPGKEREFVAGIRWSGSSTYYADSVKGRFTISRDNAKNTVYLQMNSLKPEDTAVYYCATGQPYGPLYSLGYGYWGQGTQVTVSS | high polyreactivity
17 | QVQLVESGGGLVQAGGSLRLSCAASGIILYYNALGWYRQAPGKERELLAAITTSGVSTYDADSVKGRFTISRDNAKNTVYLQMKSLKPEDTAVYYCNARARARYFYEMDYWGQGTQVTVSS | low polyreactivity
18 | QVQLVESGGGLVQAGGSLRLSCAASGIISGDYAMGWYRQAPGKERELVARITSGDSTNYADSVKGRFTISRDNAKNTVYLQMNSLKPEDTAVYYCAAKRYVFQNDYWGQGTQVTVSS | low polyreactivity
19 | QVQLVESGGGLVQAGGSLRLSCAASGIISYKNVMGWYRQAPGKERELVAAISGRGGSTYYADSVKGRFTISRDNAKNTVYLQMNSLKPEDTAVYYCAKYPGISGYNYWGQGTQVTVSS | high polyreactivity
20 | QVQLVESGGGLVQAGGSLRLSCAASGIISYLNAMGWYRQAPGKERELVAAITGGGRTNYADSVKGRFTFSRDNAKNTVYLQMNSLKPEDTAVYYCNAYSSNYRYWARRGRPYNYWGQGTQVTVSS | high polyreactivity
21 | QVQLVESGGGLVQAGGSLRLSCAASGIIVAWYAMGWYRQAPGKERELVARISSGASPNYADSVKGRFTISRDNAKNTVYLQMNSLKPEDTSVYYCAAVSHPFRRSRYDYWRQGTQVTVSS | high polyreactivity
22 | QVQLVESGGGLVQAGGSLRLSCAASGIIVSYYAMGWYRQAPGKERELVAAITSGGSTNYADSVKGRFTISRDNAKITVYLQMNSLKPEDTAVYYCAAERGDTAYRKYDYWGQGTQVTVSS | low polyreactivity

Row | Sequence | polyreactivity (PSR sort gate)
23 | QVQLVESGGGLVQAGGSLRLSCAASGIIYNPNAMGWYRQAPGKERELVAVISISDSTNYADSVKGRFTISRDNAKNTVYLQMNSLKPEDTAVYDCATASAGTLSVTYYHWYDDWGQGTQVTVSS | low polyreactivity
24 | QVQLVESGGGLVQAGGSLRLSCAASGILFSAHAMGWYRQAPGKERELVAAISKSGSRTYYADSVKGRFTISRDNAKNTVYLQMNSLKPEDTAVYYCNAVTYSRRYAYYYWGQGTQVTVSS | high polyreactivity
25 | QVQLVESGGGLVQAGGSLRLSCAASGINLNNYPLGSYRQAPGKDRELVAAITSSGTRTYYADSVKGRFTISRDNAKINVYLQMNSLKPEDTAVYYCAAQPVYDLWGQGTQVTVSS | high polyreactivity
26 | QVQLVESGGGLVQAGGSLRLSCAASGINLRRYAMGWYRQAPGKERELVARISYRGGRTNYADSVKGRFTISRDNAKNTVYLQMNSLKPEDTAVYYCAAVAWYYHEGTAYNYWGQGTQVTVSS | high polyreactivity
27 | QVQLVESGGGLVQAGGSLRLSCAASGIPFEGYAMGWYRQAPGKERELVAAIRSSGTSTYYADSVKGRFTISRDTAKNTVYLQMNSLKPEDTAVYYCNRARSSSRYDYWGQGTQVTVSS | low polyreactivity
28 | QVQLVESGGGLVQAGGSLRLSCAASGIPFKGYAMGWYRQAPGQERELVAASNSRGGTYADSVKGRFTISRDNAKNTVYLQRNSLKPEDTAVYYCGVSAVRPLPLDSGYDYWGQGSQVTVSS | low polyreactivity
29 | QVQLVESGGGLVQAGGSLRLSCAASGIPRNTMGWYRQAPGKERELVASISTSGGSTYYADSVKGRFTISRDNAKNTVYLPMNSLKPEDTAVYYCAKKGYASRYFIYDYWGQGTQVTVSS | low polyreactivity
30 | QVQLVESGGGLVQAGGSLRLSCAASGIRFAQYTMGGYRQAHGKESELVAAINRNGGSTYYADSVKGRFTISRDNAKNTVYLQMNSLKPEDTPVYYCNADALGFRYDYWGQGTQVTVSS | low polyreactivity
31 | QVQLVESGGGLVQAGGSLRLSCAASGISIRSYAMGWYRQAPGKERELVAAIRSGGSTSYADSVKGRFTISRDNAKNTVYLLMNSLKPEDTAVYYCAAGGYVPLPDITFWKFGYWGQGTQVNVSS | low polyreactivity
32 | QVQLVESGGGLVQAGGSLRLSCAASGITFADNAMGWYRQAPGKERELVASISKSSGSTYYADSVKGRFTISRDNAKNTVYLQMNSLKPEDTAVYYCATDPYVRRSPSWYDYWGQGTQVTVSS | low polyreactivity
33 | QVQLVESGGGLVQAGGSLRLSCAASGITFAFYAMGWYRQAPGKERELVAAISWSGTRTYYADSVKGRFTISRDNAKNTVYLQMNSLKPEDSAVYYCAADYQAGDKLYDYWGQGTQVTVSS | low polyreactivity
34 | QVQLVESGGGLVQAGGSLRLSCAASGITFAFYDMGWYRQAPGKERELVAAISYSGGGTYYADSVKGRFTISRDNAKNTVYLQMNSLKPEDTAVYYCAADPKTHPLFGEDYWGQGTQVTVSS | low polyreactivity
35 | QVQLVESGGGLVQAGGSLRLSCAASGITFAGYAMGWYRQAPGKERELVAAITRGGGITYYADSVKGRFTISRDNAKNTVYLQMNSLKPEDTPVDYCNAVVTSAAGYFPLLYDYWGQGTQVTVSS | high polyreactivity
36 | QVQLVESGGGLVQAGGSLRLSCAASGITFAGYAMRWYRQAPGKERELVASMTWGGGRTYYADSVKRRFTISRDNAKNTVYLQMNSLKPEDTAVYYCATRRRPQYNKYDYWGQGTQVTVSS | high polyreactivity
37 | QVQLVESGGGLVQAGGSLRLSCAASGITFARYAMGLYRQAPGKERELVAAISWSGGSTYYADSVKGRFTISRDNAKNTVYLQMNSLKPEDTAVYYCAAGGRVRRNKFDYWGQGTQVTVSS | high polyreactivity
38 | QVQLVESGGGLVQAGGSLRLSCAASGITFASNTMGCYIQAPGKERELVAAITRGDNTYYADSVKGRFTISRDNAKNTVYLQMNSLKAEDPAVYYCATEGYQIQYEHDYWGQGTQVTVSS | low polyreactivity
39 | QVQLVESGGGLVQAGGSLRLSCAASGITFASYAMGWYRQAPGKERELVAAISTRSGGTYYADSVKGRFTISRDNAKNTVYLQMNSLKPEETAVYYCAAYNVIYTRRMYYWGQGTQVTVSS | high polyreactivity
40 | QVQLVESGGGLVQAGGSLRLSCAASGITFATNAMGWYRQAPGKERELVAAISWSGGSTYYADSVKGRFTISRDNAKNTVYLQMNSLKPEDTAVYYCATGYSVWYDYWGQGTQVTLSS | low polyreactivity
41 | QVQLVESGGGLVQAGGSLRLSCAASGITFAWYAMGWYRQAPGKEREFVAAITGSGGRTYYADSVKGRFTISRDIAKNTVYLQMNSLKPEDTAVYYCATASSVSGARYDYCGQGTQVTVSS | high polyreactivity
42 | QVQLVESGGGLVQAGGSLRLSCAASGITFAYNAMGWYRQAPGKERELVARITSGGRTYYADSVKGRFTISRDNAKNTVYLQMKSLKPEDTAVYYCNAKEGSRYRKYDYWGPGTQVTVSS | low polyreactivity
43 | QVQLVESGGGLVQAGGSLRLSCAASGITFAYNTMGWYRQAPGKERELVAGISVSGASTYYADSVKGRFTISRDNAKNSVYLQMNSLKPEDTAVYYCAAPRWVANQYREYDYWGQGTQVTVSS | high polyreactivity

From the nanobody polyreactivity screen of Harvey et al. (2022)
